Assay results: the supplement of paper PMC10899765

Key:
Conditions in all cases: 20 nM; 72 h
MCF10A [1] = test: one-nucleolus phenotype percent effect (relative to siNT 0% and siNOL11 100%); higher = more cells with one nucleolus (ribosome biogenesis inhibition)
Description: (§1)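 After 72 h, cells were fixed and stained with Hoechst and anti-fibrillarin, and nucleoli per nucleus were counted with CellProfiler. Values are plate-adjusted percent effect for the one-nucleolus and 5+ nucleoli phenotypes, normalised to siNT (0%) and to the positive controls siNOL11 or siKIF11 (100%), as the mean of biological triplicates. Percent viability is the nuclei count relative to siNT.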

MCF10A [2] = test: 5+ nucleoli phenotype percent effect, hitpick validation (relative to siNT 0% and siKIF11 100%); higher = more cells with five or more nucleoli
Description: (§2)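 Primary screen hits (microRNA mimics) were re-picked and rescreened for nucleolar number in MCF10A cells (hitpick validation; percent effect relative to the siNT and siNOL11/siKIF11 controls). A secondary screen measured nucleolar rRNA biogenesis inhibition: after 72 h of transfection at 20 nM, cells were labelled 1 h with 1 mM 5-EU and nucleolar 5-EU signal was quantified, normalised to siNT (0%) and siPOLR1A (100%). Means are over n=5 (MCF10A) or n=2 (RPE-1, HeLa) biological replicates.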

MCF10A [3] = test: 5+ nucleoli phenotype percent effect (relative to siNT 0% and siKIF11 100%); higher = more cells with five or more nucleoli
Description: as §1

hTERT RPE-1 = test: nucleolar rRNA biogenesis percent inhibition (5-EU; siNT 0%, siPOLR1A 100%); higher = stronger inhibition of nucleolar rRNA biogenesis
Description: as §2

MCF10A [4] = test: as above
Description: as §2

HeLa = test: as above
Description: as §2

MCF10A [5] = test: percent viability (nuclei count relative to siNT); higher = more viable cells
Description: as §1

MCF10A [6] = test: one-nucleolus phenotype percent effect, hitpick validation (relative to siNT 0% and siNOL11 100%); higher = more cells with one nucleolus
Description: as §2

| Sequence | one-nucleolus phenotype percent effect (MCF10A [1]) [%] | 5+ nucleoli phenotype percent effect (MCF10A [2]) [%] | 5+ nucleoli phenotype percent effect (MCF10A [3]) [%] | nucleolar rRNA biogenesis percent inhibition (hTERT RPE-1) [%] | nucleolar rRNA biogenesis percent inhibition (MCF10A [4]) [%] | nucleolar rRNA biogenesis percent inhibition (HeLa) [%] | percent viability (MCF10A [5]) [%] | one-nucleolus phenotype percent effect (MCF10A [6]) [%] |
| --- | --- | --- | --- | --- | --- | --- | --- | --- |
| AAAGGAGGAAAUAGGCAGGCCA [hsa-miR-3173-3p] | 67.7 | -0.0263 | -35.7 | 159 | 86.5 | 25.3 | 17.5 | 84.3 |
| AAAGGCAUAAAACCAAGACA [hsa-miR-3910] | 97 | -8.76 | -39.2 |  | 12.7 |  | 11.9 | 167 |
| AAGCAGCUGCCUCUGAGGC [hsa-miR-646] | 70.7 | -14.4 | -42.6 |  | 130 |  | 32.4 | 152 |
| AAGGAGAUGCUCAGGCAGAU [hsa-miR-6888-5p] | 86.2 | -11.7 | -54 |  | 50.6 |  | 31 | 173 |
| AAGGAGCUCACAGUCUAUUGAG [hsa-miR-28-5p] | 69.4 | -2.58 | -30.7 | 63.6 | 0.18 | 60.9 | 39 | 146 |
| AAGGAGCUUACAAUCUAGCUGGG [hsa-miR-708-5p] | 120 | 1.8 | -34.6 | 9.05 | -26.3 | 48.6 | 27.9 | 187 |
| ACCUUGGCUCUAGACUGCUUACU [hsa-miR-212-5p] | -30.9 | 91.8 | 164 | 114 | 118 | 95.9 | 27.9 | -36.9 |
| ACUCGGCGUGGCGUCGGUCGUG [hsa-miR-1307-3p] | 66.2 | -13.2 | -50.5 | 13.7 | 100 | 40.2 | 39.9 | 112 |
| ACUGGGCUUGGAGUCAGAAG [hsa-miR-378g] | 91.2 | -9.08 | -34.6 |  | 57.9 |  | 16.8 | 159 |
| ACUGGGGAGCAGAAGGAGAACC [hsa-miR-4667-5p] | 67.8 | 9.27 | -15.5 |  | 81.2 |  | 9.07 | 107 |
| AGAAAGGGUGGCAAUACCUCUU [hsa-miR-5681a] | 114 | -15.4 | -33.1 |  | 76.4 |  | 8.23 | 165 |
| AGAAGGCACUAUGAGAUUUAGA [hsa-miR-605-3p] | 66.4 | -15.9 | -49.9 | -22.8 | 65 | 23.1 | 43.9 | 154 |
| AGAGCAGAAGGAUGAGAU [hsa-miR-4468] | 66.8 | -14.8 | -43.6 |  | 102 |  | 16.5 | 109 |
| AGAUCAGAAGGUGAUUGUGGCU [hsa-miR-383-5p] | 68.7 | -5.3 | -26.7 | 123 | 0.973 | 129 | 14.2 | 125 |
| AGCUUUUGGGAAUUCAGGUAGU [hsa-miR-3140-3p] | 91.3 | -14.2 | -25.9 | 33 | 6.44 | 76.4 | 17.7 | 159 |
| AGGAGCAGUGCCGGCCAAGGCGCC [hsa-miR-6081] | 81.7 | -16.9 | -52.9 |  | 57.3 |  | 22.9 | 152 |
| AGGAGCUAUCCACUCCAGGUGUCC [hsa-miR-6500-5p] | 70.9 | 5.46 | -33 |  | 61.3 |  | 19.2 | 153 |
| AGGCGGAGACUUGGGCAAUUG [hsa-miR-25-5p] | 115 | -9.31 | -48.5 | 45.2 | 75.3 | 86.7 | 29.4 | 182 |
| AGGUAUUGCCACCCUUUCUAGU [hsa-miR-5681b] | 90.7 | -3.11 | -35.5 |  | 66 |  | 12.7 | 133 |
| AGUGUGGCUUUCUUAGAGC [hsa-miR-644a] | 93.5 | -13.1 | -48.4 |  | 101 |  | 35 | 170 |
| AGUUUUGCAGGUUUGCAUCCAGC [hsa-miR-19b-1-5p] | 76.9 | -19.8 | -41.5 | -48.4 | 30.7 | 92.7 | 26.2 | 196 |
| CAAAGGUAUUUGUGGUUUUUG [hsa-miR-548m] | 68.6 | -10.9 | -40.8 |  | 4.11 |  | 39.4 | 130 |
| CAAUCAGCAAGUAUACUGCCCU [hsa-miR-34a-3p] | 83.5 | 1.68 | -43.5 | 113 | 70.2 | -6.79 | 25.6 | 127 |
| CAAUGGCACAAACUCAUUCUUGA [hsa-miR-5197-5p] | 71 | 20.5 | -38.9 |  | 16.5 |  | 22.7 | 65.4 |
| CACCAGGGCAGAGCAGGGCUGA [hsa-miR-6753-5p] | 68.1 | -17.4 | -40 |  | 91.2 |  | 15 | 141 |
| CAGCCUCUGCCCUUGGCCUCC [hsa-miR-6877-3p] | 69.1 | -16.2 | -44.7 |  | 114 |  | 28.9 | 153 |
| CAGGUCGUCUUGCAGGGCUUCU [hsa-miR-431-3p] | 84.4 | -15.2 | -53.4 | 118 | 83.8 | 115 | 35.3 | 182 |
| CAUCUGGCAUCCGUCACACAGA [hsa-miR-3126-3p] | 67 | -8.87 | -5.56 | 50.7 | 22.1 | 4.46 | 9.11 | 105 |
| CCCCACCUCCUCUCUCCUCAG [hsa-miR-1224-3p] | -25.7 | 28.1 | 97.2 |  | 22.4 |  | 86.7 | -32.5 |
